The IC50 is the concentration that inhibits the measured activity by half.

Starred links: 1 amine or outer side, 2 acyl side, 3 side chain; linkers in the order of their positions; H or OH if unused. Non-standard residues stand in square brackets, D forms with d. No end group written: not given here. *: point of attachment. Tyr(Me) = O-methyltyrosine, COc1ccc(C[C@H](N[*:1])C(=O)[*:2])cc1; Phenylacetyl(2,3,4,5,6-F5) = O=C(Cc1c(F)c(F)c(F)c(F)c1F)*; Phe(F5) = N[C@@H](Cc1c(F)c(F)c(F)c(F)c1F)C(=O)O; Phe(4-Cl) = N[C@@H](Cc1ccc(Cl)cc1)C(=O)O; hArg = N=C(N)NCCCC[C@H](N)C(=O)O; Nle = CCCC[C@H](N)C(=O)O; Orn = NCCC[C@H](N)C(=O)O; Abu = CC[C@H](N)C(=O)O; Ada = not defined here; Amp = not defined here; Cpa = not defined here; PhAc = O=C(Cc1ccccc1)*; Aoc = NCCCCCCCC(=O)O

Here are results for 22 molecules from patent US20220000983A1 (UNITED STATES GOVERNMENT AS REPRESENTED BY THE DEPARTMENT …, published 2022).

Test [1] addresses T1, GHRH receptor on rat pituitary cells (rat, UniProt Q02644 23-464).
T1 sequence (looked up): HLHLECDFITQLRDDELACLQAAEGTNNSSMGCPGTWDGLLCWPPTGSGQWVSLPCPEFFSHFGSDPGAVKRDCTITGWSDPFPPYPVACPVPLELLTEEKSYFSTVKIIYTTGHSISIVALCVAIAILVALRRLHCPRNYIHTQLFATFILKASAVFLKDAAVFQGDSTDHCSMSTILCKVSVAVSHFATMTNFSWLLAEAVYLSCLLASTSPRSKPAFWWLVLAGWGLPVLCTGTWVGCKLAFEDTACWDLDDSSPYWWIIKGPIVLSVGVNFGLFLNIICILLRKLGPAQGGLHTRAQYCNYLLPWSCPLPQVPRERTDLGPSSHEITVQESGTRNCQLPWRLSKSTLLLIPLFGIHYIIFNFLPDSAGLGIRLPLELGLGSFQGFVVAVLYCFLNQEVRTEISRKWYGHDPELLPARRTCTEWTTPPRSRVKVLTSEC
As to the kind of experiment: cell-based or functional assay.

In test [2] the target is GHRH receptor (membrane GHRH-receptors on human anterior pituitary cells) (human) (UniProt Q02643). The test can be described thus: competitive radioligand binding; displacement of 125I-[His1,Nle27]-hGH-RH(1-32)NH2 (0.2 nM) from human pituitary membrane fractions. A general note: In a radioligand displacement assay an active substance lowers the binding of a labelled ligand.

Test [3] concerns the target T2, GHRH receptor (membrane GHRH-receptors on human anterior pituitary cells) (human, UniProt Q02643 23-423).
T2 construct: whole, on cells; Native receptor in membrane fractions prepared from bought human pituitary (National Hormone and Peptide Program), not a recombinant construct; also called pituitary type GHRH-receptor; pGHRH-R
T2 sequence (looked up): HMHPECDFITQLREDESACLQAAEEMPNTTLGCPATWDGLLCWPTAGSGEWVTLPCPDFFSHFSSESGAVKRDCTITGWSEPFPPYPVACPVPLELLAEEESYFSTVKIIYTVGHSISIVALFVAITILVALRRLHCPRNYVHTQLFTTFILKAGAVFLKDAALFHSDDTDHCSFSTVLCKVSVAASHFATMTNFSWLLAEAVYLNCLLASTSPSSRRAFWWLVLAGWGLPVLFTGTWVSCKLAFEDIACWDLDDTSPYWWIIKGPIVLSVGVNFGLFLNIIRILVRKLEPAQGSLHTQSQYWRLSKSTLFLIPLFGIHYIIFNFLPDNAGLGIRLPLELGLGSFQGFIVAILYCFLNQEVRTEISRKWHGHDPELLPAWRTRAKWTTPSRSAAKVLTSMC
Described as above. On the procedure:
Receptor binding affinities in vitro. Preparation of human pituitary membrane fractions and receptor binding of analogs of GH-RH were performed (Halmos G, Rekasi Z, Szoke B, Schally A V. (1993) Receptor 3:87-97). Human pituitary was purchased from the National Hormone and Peptide Program. […] The values were calculated from technical duplicate tubes.
Nineteen new AVR analogs of GHRH were tested in the receptor binding assay. Table 6 presents the IC₅₀ values of GHRH antagonists to membrane GHRH-receptors binding on human anterior pituitary cells.

With AVR-540 (peptide), in test [1], the Relative GH release (relative to control (1.00)) came to 0.88.
Consider AVR-332 (peptide), for which the half-maximal inhibitory concentration (IC50) in test [2] was determined as 0.34 nM.
MIA-602 (peptide) gave an IC50 in test [2] of 0.27 nM. In addition, the Relative GH release (relative to control (1.00)) in test [1] worked out at 0.78.
As to {Phenylacetyl(2,3,4,5,6-F5)-Ada}-Y[dR]DAI[Phe(4-Cl)]TA[hArg][Phe(F5)]RKVL[Abu]QLSARKLLQDI[Nle][dR][hArg] (not fully specified (C-terminus); reading uncertain) [AVR-354], the IC50 in test [3] worked out at 0.14 nM. Moreover, the “Relative GH release” value in test [1] is 0.9 relative to control (1.00).
Consider {Phenylacetyl(2,3,4,5,6-F5)-Ada}-Y[dR]DAI[Phe(4-Cl)]TA[hArg][Phe(F5)]RKVL[Abu]QLSARKLLQDI[Nle][dR][hArg]-{Ada-NH2} (reading uncertain, Synthetic GHRH antagonist) [AVR-353], for which the IC50 in test [3] amounted to 0.11 nM. Further, the “Relative GH release” value in test [1] is 0.65 relative to control (1.00).
For {Phenylacetyl(2,3,4,5,6-F5)-Ada}-Y[dR]DAI[Phe(4-Cl)]TN[hArg][Tyr(Me)]RKVL[Abu]QLSARKLLQDI[Nle][dR][hArg]-{Ada-NH2} (reading uncertain, Synthetic GHRH antagonist) [AVR-333] the same measures were 0.3 nM and 0.88 relative to control (1.00).
{PhAc-Ada}-Y[dR]DAI[Cpa]TA[hArg][Phe(F5)]H[Orn]VL[Abu]QLSAH[Orn]LLQDI[Nle][dR][hArg]-NH2 (reading uncertain) [MIA-690] yielded an IC50 in test [3] of 0.53 nM. In other words, the sub-nanomolar range.
The same measure, in the same setting: then {PhAc-Ada}-Y[dR]DAI[Phe(4-Cl)]TAR[Phe(F5)]RKVL[Abu]QLSAH[Orn]LLQDI[Nle][dR][hArg]-NH2 (reading uncertain, Synthetic GHRH antagonist) [AVR-116], with 0.5 nM.
As for {Phenylacetyl(2,3,4,5,6-F5)-Ada}-Y[dR]DAI[Phe(F5)]TA[hArg][Tyr(Me)]RKVL[Abu]QLSARKLLQDI[Nle][dR]-NHMe (reading uncertain) [AVR-235], the half-inhibitory concentration (IC50) in test [3] was 0.49 nM. The “Relative GH release” value in test [1] was 0.6 relative to control (1.00).
In turn, {Phenylacetyl(2,3,4,5,6-F5)-Ada}-Y[dR]DAI[Cpa]TA[hArg][Phe(F5)]H[Orn]VL[Abu]QLSAH[Orn]LLQDI[Nle][dR][hArg]-NHMe (reading uncertain) [AVR-542] returned an IC50 in test [3] of 0.21 nM.
The molecule {dF-Ada}-Y[dR]DAI[Phe(4-Cl)]TAR[Tyr(Me)]RKVL[Abu]QLSAH[Orn]LLQDI[Nle][dR][hArg]-NH2 (reading uncertain, Synthetic GHRH antagonist) [AVR-120] came in with an IC50 in test [3] of 0.48 nM. This IC50 is about 2.3-fold higher than that of the molecule before.
In turn, {Phenylacetyl(2,3,4,5,6-F5)-Ada}-Y[dR]DAI[Cpa]TNR[Tyr(Me)]RKVL[Abu]QLSAH[Orn]LLQDI[Nle][dR][hArg]-{Ada-NH2} (reading uncertain, Synthetic GHRH antagonist) [AVR-620] registered an IC50 in test [3] of 0.31 nM.
As for {Phenylacetyl(2,3,4,5,6-F5)-Ada}-Y[dR]DAI[Cpa]TA[hArg][Phe(F5)]H[Orn]VL[Abu]QLSAH[Orn]LLQDI[Nle][dR][hArg]-{Ada-NHMe} (reading uncertain, Synthetic GHRH antagonist) [AVR-543], in test [3], the IC50 was determined as 0.25 nM. Further, the “Relative GH release” value in test [1] was 1.1 relative to control (1.00).
For {PhAc-Ada}-Y[dR]DAI[Phe(4-Cl)]TN[hArg][Tyr(Me)]RKVL[Abu]QLSARKLLQDI[Nle][dR][hArg]-{Aoc-NHMe} (reading uncertain, Synthetic GHRH antagonist) [AVR-321], the IC50 in test [3] is 0.23 nM. This lies in the sub-nanomolar range.
Consider {Phenylacetyl(2,3,4,5,6-F5)-Ada}-Y[dR]DAI[Phe(F5)]TA[hArg][Tyr(Me)]RKVL[Abu]QLSARKLLQDI[Nle][dR][hArg]-{Ada-NH2} (not fully specified; reading uncertain) [AVR-352], for which the IC50 in test [3] turned out to be 0.09 nM. Further, in test [1], the “Relative GH release” value is 0.72 relative to control (1.00).
For the molecule {PhAc-Ada}-Y[dR]DAI[Cpa]TARYRKVL[Abu]QLSARKLLQDI[Nle][dR][hArg]-NH2 (reading uncertain, Synthetic GHRH antagonist) [AVR-107], the half-inhibitory concentration (IC50) in test [3] came out at 0.61 nM.
Same read-out and setting: in the case of {Phenylacetyl(2,3,4,5,6-F5)-Ada}-Y[dR]DAI[Cpa]TA[hArg][Phe(F5)]H[Orn]VL[Abu]QLSAH[Orn]LLQDI[Nle][dR][hArg]-{Ada-NH2} (reading uncertain, Synthetic GHRH antagonist) [AVR-552] it was 0.17 nM; in that of {PhAc-Ada}-Y[dR]DAI[Phe(4-Cl)]TAR[Tyr(Me)]RKVL[Abu]QLSAH[Orn]LLQDI[Nle][dR][hArg]-NH2 (reading uncertain, Synthetic GHRH antagonist) [AVR-104], 0.59 nM.
{Phenylacetyl(2,3,4,5,6-F5)-Ada}-Y[dR]DAI[Phe(4-Cl)]TN[hArg][Tyr(Me)]RKVL[Abu]QLSARKLLQDI[Nle][dR][hArg]-{Aoc-NHMe} (reading uncertain, Synthetic GHRH antagonist) [AVR-322] returned an IC50 in test [3] of 0.25 nM.
Still for that read-out and setting: in the case of {PhAc-Ada}-Y[dR]DAI[Cpa]TAR[Amp]RKVL[Abu]QLSAH[Orn]LLQDI[Nle][dR][hArg]-NHMe (reading uncertain, Synthetic GHRH antagonist) [AVR-201] it was 0.61 nM.
With {Phenylacetyl(2,3,4,5,6-F5)-Ada}-Y[dR]DAI[Phe(F5)]TA[hArg][Tyr(Me)]H[Orn]VL[Abu]QLSAH[Orn]LLQDI[Nle][dR][hArg]-{Ada-NH2} (reading uncertain, Synthetic GHRH antagonist) [AVR-553], the IC50 in test [3] is 0.15 nM. The “Relative GH release” value in test [1] is 0.82 relative to control (1.00).
{PhAc-Ada}-Y[dR]DAI[Phe(4-Cl)]TNR[Tyr(Me)]RKVL[Abu]QLSARKLLQDI[Nle][dR][hArg]-NHMe (reading uncertain, Synthetic GHRH antagonist) [AVR-234] showed an IC50 in test [3] of 0.45 nM.
